Measurements reported in publication PMC3133606.

Target: protective antigen, full-length wild type, nicked (nPA) and assembled into oligomers (Bacillus anthracis)
Experiment: electron microscopy

Substance: protective antigen, full-length wild type, nicked (nPA) and assembled into oligomers (natural protein)
- fold less octamer with Δ47 LFN than with WT LFN: 10 fold
